Measurements reported in patent US20050065082A1 (published 2005).

Legend:
[1] = target: T1, GST-BMAL1 (N-terminal GST fusion protein of human BMAL1; BMAL1b was used) (human, UniProt O00327 1-626); test: not described, Example 3 holds only kinase assays
T1 construct: Expressed in E. coli BL21; not shown: glutathione S-transferase (GST) tag encoded by the pGEX-4T vector (Amersham Pharmacia Biotech), N-terminal

[2] = target: T2, GST-BPL1 (N-terminal GST fusion protein of human BPL1, holocarboxylase synthetase) (human, UniProt P50747 1-726); test: not described, Example 4 holds only kinase assays
T2 construct: Expressed in E. coli BL21; not shown: glutathione S-transferase (GST) tag encoded by the pGEX-4T vector (Amersham Pharmacia Biotech), N-terminal
T2 sequence: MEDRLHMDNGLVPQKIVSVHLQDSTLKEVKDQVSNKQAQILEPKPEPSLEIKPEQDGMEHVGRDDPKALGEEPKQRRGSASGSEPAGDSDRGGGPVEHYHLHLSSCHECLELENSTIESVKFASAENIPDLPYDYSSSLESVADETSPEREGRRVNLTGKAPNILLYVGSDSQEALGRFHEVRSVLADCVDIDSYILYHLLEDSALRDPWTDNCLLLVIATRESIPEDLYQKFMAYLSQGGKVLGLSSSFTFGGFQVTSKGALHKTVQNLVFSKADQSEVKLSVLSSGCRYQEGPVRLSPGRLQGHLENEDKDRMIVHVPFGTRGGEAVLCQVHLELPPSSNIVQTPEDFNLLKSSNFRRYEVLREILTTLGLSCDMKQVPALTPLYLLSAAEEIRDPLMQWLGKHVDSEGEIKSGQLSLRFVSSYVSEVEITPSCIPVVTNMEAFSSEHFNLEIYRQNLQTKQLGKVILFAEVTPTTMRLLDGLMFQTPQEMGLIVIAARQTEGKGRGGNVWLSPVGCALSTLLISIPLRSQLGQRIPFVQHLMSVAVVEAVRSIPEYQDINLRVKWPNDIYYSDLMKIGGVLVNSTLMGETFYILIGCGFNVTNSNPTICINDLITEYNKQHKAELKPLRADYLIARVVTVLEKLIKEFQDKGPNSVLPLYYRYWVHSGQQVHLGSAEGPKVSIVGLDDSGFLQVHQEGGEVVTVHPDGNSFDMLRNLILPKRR

T1 sequence (O00327 whole entry, the tested form may be a part): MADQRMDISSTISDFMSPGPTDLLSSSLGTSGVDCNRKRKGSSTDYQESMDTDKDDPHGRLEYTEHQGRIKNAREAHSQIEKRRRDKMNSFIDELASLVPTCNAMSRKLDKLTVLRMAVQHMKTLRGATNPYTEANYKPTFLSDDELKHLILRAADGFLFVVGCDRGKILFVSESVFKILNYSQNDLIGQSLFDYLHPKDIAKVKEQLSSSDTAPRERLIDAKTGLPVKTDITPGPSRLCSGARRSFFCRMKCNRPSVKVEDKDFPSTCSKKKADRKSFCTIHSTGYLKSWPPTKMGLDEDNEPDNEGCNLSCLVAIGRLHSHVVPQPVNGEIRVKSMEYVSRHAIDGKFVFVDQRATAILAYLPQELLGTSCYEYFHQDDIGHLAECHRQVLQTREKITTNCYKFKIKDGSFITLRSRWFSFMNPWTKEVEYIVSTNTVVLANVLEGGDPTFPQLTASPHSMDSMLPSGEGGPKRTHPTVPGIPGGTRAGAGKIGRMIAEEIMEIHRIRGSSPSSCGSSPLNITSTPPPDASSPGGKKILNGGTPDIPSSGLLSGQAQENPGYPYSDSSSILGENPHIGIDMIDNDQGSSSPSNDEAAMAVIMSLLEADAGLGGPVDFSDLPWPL

B1: His-JNK3 (activated human JNK3 (JNK3α1) with an N-terminal histidine-tag) (enzyme, UniProt P53779-2 1-422, looked up)
chain: MSLHFLYYCSEPTLDVKIAFCQGFDKQVDVSYIAKHYNMSKSKVDNQFYSVEVGDSTFTVLKRYQNLKPIGSGAQGIVCAAYDAVLDRNVAIKKLSRPFQNQTHAKRAYRELVLMKCVNHKNIISLLNVFTPQKTLEEFQDVYLVMELMDANLCQVIQMELDHERMSYLLYQMLCGIKHLHSAGIIHRDLKPSNIVVKSDCTLKILDFGLARTAGTSFMMTPYVVTRYYRAPEVILGMGYKENVDIWSVGCIMGEMVRHKILFPGRDYIDQWNKVIEQLGTPCPEFMKKLQPTVRNYVENRPKYAGLTFPKLFPDSLFPADSEHNKLKASQARDLLSKMLVIDPAKRISVDDALQHPYINVWYDPAEVEAPPPQIYDKQLDEREHTIEEWKELIYKEVMNSEEKTKNGVVKGQPSPSAQVQQ
notes: Expressed in Sf9 cells by recombinant baculovirus, purified with Probond Resin; not shown: N-terminal His-tag and vector residues of pFastBac HT
B1: binds [1]; binds [2].
